From publication PMC7367191, “Intrinsic disorder is essential for Cas9 inhibition of anti-CRISPR AcrIIA5”

Target: Cas9;AcrIIA5 (Streptococcus pyogenes;virulent phage …, UniProt Q99ZW2;A0A220GHA5 1-1368;1-140, |)
Assay: EMSA; 5 mM Mg2+; AcrIIA5 0.4-4 uM supershifts Cas9-sgRNA 0.2 uM; EMSA: 20 mM Tris-HCl pH 7.5, 150 mM KCl, 5 mM MgCl2, 1 mM DTT, 5% glycerol, 25 C, 40 min; sgRNA 200 nM, Cas9 400 nM; 6% PAGE, SYBR Gold
Settings: protein: recombinant;recombinant; tags: N-terminal His6 (pET28); copies: 1;1; single strand, guide plus sgRNA scaffold hairpins

B1: Cas9 sgRNA (structured_RNA)
RNA: GGAAAUUAGGUGCGCUUGGCGUUUUAGAGCUAGAAAUAGCAAGUUAAAAUAAGGCUAGUCCGUUAUCAACUUGAAAAAGUGGCACCGAGUCGGUGCUU
Does B1 bind?
Result: binds
